Measurements: article PMC314469, “Protein Interaction Networks by Proteome Peptide Scanning” (PLoS Biology, 2004)

Target: T1, Boi1 SH3 (BOI1_YEAST), P38041
T1 chain: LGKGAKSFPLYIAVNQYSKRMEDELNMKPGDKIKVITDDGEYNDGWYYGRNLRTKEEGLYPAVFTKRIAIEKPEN
Test: SPOT array

Binder	normalised SPOT signal, Boehringer light units (BLU); mean over the file's lines of this peptide
WKPPDLPIRLRKRP [YIL156W 502-515]	7340
YKIPVVPPRETYFA [YGR166W 507-520]	137
WSYPYEPLRVLQVG [YDR415C 17-30]	326
VVIPPVPSRYSDER [YDL117W 95-108]	50.6
YMQPIIPGKTESFE [YDR390C 151-164]	62.4
VTVPKLPFKLAVNK [YBR040W 181-194]	0
VVLPKFPDKSFVLD [YLR215C 239-252]	94.3
YILPKNPFRVPSEM [YGR293C 125-138]	8450
VVSPSHPFKQLQKI [YIL146C 146-159]	59.7
WISPDTPLKFPLNE [YJL093C 636-649]	85.4
VYVPINPPKELDQR [YJL060W 164-177]	32.4
VTTPLKPKRLAIPI [YJR083C 47-60]	122
YLDPFHPKRKFIGV [YNL005C 96-109]	178
VTQPITPVKKRRSE [YNL230C 264-277]	442
YGPPTDPRKQKQAK [YDR001C 36-49]	156
WNLPWSPFKITTIM [YDR211W 95-108]	143
VYSPIQPRRRKDSS [YLR228C 72-85]	571
WNDPSDPTKGFQYL [YMR207C 1538-1551]	30.3
YDFPTVPARKFVQP [YNR006W 578-591]	1480

Target: T2, Boi2 SH3 (BOI2_YEAST), P39969
T2 chain: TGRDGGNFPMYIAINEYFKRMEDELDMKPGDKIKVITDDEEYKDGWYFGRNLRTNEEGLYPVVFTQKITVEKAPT
Test: SPOT array

Binder	normalised SPOT signal, Boehringer light units (BLU); mean over the file's lines of this peptide
WKPPDLPIRLRKRP [YIL156W 502-515]	2000
YKIPVVPPRETYFA [YGR166W 507-520]	26.2
WSYPYEPLRVLQVG [YDR415C 17-30]	3020
VVIPPVPSRYSDER [YDL117W 95-108]	0
YMQPIIPGKTESFE [YDR390C 151-164]	259
VTVPKLPFKLAVNK [YBR040W 181-194]	69.6
VVLPKFPDKSFVLD [YLR215C 239-252]	34
YILPKNPFRVPSEM [YGR293C 125-138]	384
VVSPSHPFKQLQKI [YIL146C 146-159]	50.3
WISPDTPLKFPLNE [YJL093C 636-649]	227
VYVPINPPKELDQR [YJL060W 164-177]	17.4
VTTPLKPKRLAIPI [YJR083C 47-60]	20.4
YLDPFHPKRKFIGV [YNL005C 96-109]	58.3
VTQPITPVKKRRSE [YNL230C 264-277]	90
YGPPTDPRKQKQAK [YDR001C 36-49]	38.1
WNLPWSPFKITTIM [YDR211W 95-108]	2670
VYSPIQPRRRKDSS [YLR228C 72-85]	1180
WNDPSDPTKGFQYL [YMR207C 1538-1551]	47.1
YDFPTVPARKFVQP [YNR006W 578-591]	8.3

Target: T3, Rvs167 SH3 (RV167_YEAST), P39743
T3 chain: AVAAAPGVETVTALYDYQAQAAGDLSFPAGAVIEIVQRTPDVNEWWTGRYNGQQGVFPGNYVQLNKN
Test: SPOT array

Binder	normalised SPOT signal, Boehringer light units (BLU); mean over the file's lines of this peptide
WKPPDLPIRLRKRP [YIL156W 502-515]	12900
YKIPVVPPRETYFA [YGR166W 507-520]	385
WSYPYEPLRVLQVG [YDR415C 17-30]	1090
VVIPPVPSRYSDER [YDL117W 95-108]	1860
YMQPIIPGKTESFE [YDR390C 151-164]	498
VTVPKLPFKLAVNK [YBR040W 181-194]	50.5
VVLPKFPDKSFVLD [YLR215C 239-252]	22.6
YILPKNPFRVPSEM [YGR293C 125-138]	198
VVSPSHPFKQLQKI [YIL146C 146-159]	55.9
WISPDTPLKFPLNE [YJL093C 636-649]	168
VYVPINPPKELDQR [YJL060W 164-177]	17.1
VTTPLKPKRLAIPI [YJR083C 47-60]	17.7
YLDPFHPKRKFIGV [YNL005C 96-109]	57
VTQPITPVKKRRSE [YNL230C 264-277]	56.8
YGPPTDPRKQKQAK [YDR001C 36-49]	63.3
WNLPWSPFKITTIM [YDR211W 95-108]	870
VYSPIQPRRRKDSS [YLR228C 72-85]	580
WNDPSDPTKGFQYL [YMR207C 1538-1551]	48.9
YDFPTVPARKFVQP [YNR006W 578-591]	254

Target: T4, Yfr024 SH3 (LSB3_YEAST), P43603
T4 chain: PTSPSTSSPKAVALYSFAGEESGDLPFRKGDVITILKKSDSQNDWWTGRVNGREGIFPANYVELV
Test: SPOT array

Binder	normalised SPOT signal, Boehringer light units (BLU); mean over the file's lines of this peptide
WKPPDLPIRLRKRP [YIL156W 502-515]	47500
YKIPVVPPRETYFA [YGR166W 507-520]	3320
WSYPYEPLRVLQVG [YDR415C 17-30]	2320
VVIPPVPSRYSDER [YDL117W 95-108]	4480
YMQPIIPGKTESFE [YDR390C 151-164]	596
VTVPKLPFKLAVNK [YBR040W 181-194]	3360
VVLPKFPDKSFVLD [YLR215C 239-252]	533
YILPKNPFRVPSEM [YGR293C 125-138]	808
VVSPSHPFKQLQKI [YIL146C 146-159]	70.5
WISPDTPLKFPLNE [YJL093C 636-649]	5890
VYVPINPPKELDQR [YJL060W 164-177]	298
VTTPLKPKRLAIPI [YJR083C 47-60]	1890
YLDPFHPKRKFIGV [YNL005C 96-109]	88.7
VTQPITPVKKRRSE [YNL230C 264-277]	2650
YGPPTDPRKQKQAK [YDR001C 36-49]	172
WNLPWSPFKITTIM [YDR211W 95-108]	6480
VYSPIQPRRRKDSS [YLR228C 72-85]	13300
WNDPSDPTKGFQYL [YMR207C 1538-1551]	1300
YDFPTVPARKFVQP [YNR006W 578-591]	804

Target: T5, Yhr016c SH3 (YSC84_YEAST), P32793
T5 chain: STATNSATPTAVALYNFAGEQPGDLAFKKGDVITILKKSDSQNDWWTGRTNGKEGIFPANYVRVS
Test: SPOT array

Binder	normalised SPOT signal, Boehringer light units (BLU); mean over the file's lines of this peptide
WKPPDLPIRLRKRP [YIL156W 502-515]	24500
YKIPVVPPRETYFA [YGR166W 507-520]	1750
WSYPYEPLRVLQVG [YDR415C 17-30]	802
VVIPPVPSRYSDER [YDL117W 95-108]	3610
YMQPIIPGKTESFE [YDR390C 151-164]	272
VTVPKLPFKLAVNK [YBR040W 181-194]	230
VVLPKFPDKSFVLD [YLR215C 239-252]	168
YILPKNPFRVPSEM [YGR293C 125-138]	124
VVSPSHPFKQLQKI [YIL146C 146-159]	173
WISPDTPLKFPLNE [YJL093C 636-649]	364
VYVPINPPKELDQR [YJL060W 164-177]	132
VTTPLKPKRLAIPI [YJR083C 47-60]	364
YLDPFHPKRKFIGV [YNL005C 96-109]	34.3
VTQPITPVKKRRSE [YNL230C 264-277]	128
YGPPTDPRKQKQAK [YDR001C 36-49]	209
WNLPWSPFKITTIM [YDR211W 95-108]	1040
VYSPIQPRRRKDSS [YLR228C 72-85]	2250
WNDPSDPTKGFQYL [YMR207C 1538-1551]	25.5
YDFPTVPARKFVQP [YNR006W 578-591]	258
